{"source": "paper PMC3274534", "target": "recombinant human adenovirus type 5 (E1 region replaced by lacZ cDNA), whole virus particles (human adenovirus type 5) (UniProt P04133)"}
{"substance": "human coagulation factor X (zymogen) (natural protein)", "values": [{"measurement": "binding of the virus-hFX complex to heparan sulfate-coated plates (attached particles by real-time PCR), enhancement over virus alone; hFX at 0.008 and 0.05 mg/ml", "result": 7.5, "unit": "times"}]}
